Data from article PMC4015550, “Immunopurification of adenomatous polyposis coli (APC) proteins” (BMC Research Notes, 2013).

Biological target: the molecule itself
Experiment: not stated; data not shown; APC fragment of residues 1-61 said to form a dimer; no method or conditions told

B1: APC-NT antigen (APC residues 1–61 with an N-terminal FLAG-tag) (domain or fragment, human, UniProt P25054 1-61, looked up)
chain: MAAASYDQLLKQVEALKMENSNLRQELEDNSNHLTKLETEASNMKEVLKQLQGSIEDEAMA
notes: adenomatous polyposis coli (APC), human, amino acids 1-61, the N-terminal oligomerisation (coiled-coil) region; also called N-terminal fragment of APC (residues 1–61); source: E. coli (pET30a+), purified (anti-FLAG M2 Sepharose, MonoQ anion exchange, reversed-phase HPLC)
For B1, the “stoichiometry N” value was 2.
